Data as given in PMC3435532.

System: FLI1-CTD K4bR
Assay: EMSA
Conditions: non-acetylated baseline; normalized to Coomassie; Non-radioactive EMSA: 1 ug protein, 500 fmol biotinylated dsDNA, binding buffer per Uren et al. 2004 (not given); 6% gel in 0.5x TBE; protein stock 20 mM …

Substance: ets-binding site oligonucleotide (wild type)
- binding signal (fold vs non-acetylated wild type): 1
